Measurements: IntAct's records for PubMed 19759058

Experiments:
[1] = biological target: T1, casp7_mouse Casp7 (UniProt P97864)
T1 sequence: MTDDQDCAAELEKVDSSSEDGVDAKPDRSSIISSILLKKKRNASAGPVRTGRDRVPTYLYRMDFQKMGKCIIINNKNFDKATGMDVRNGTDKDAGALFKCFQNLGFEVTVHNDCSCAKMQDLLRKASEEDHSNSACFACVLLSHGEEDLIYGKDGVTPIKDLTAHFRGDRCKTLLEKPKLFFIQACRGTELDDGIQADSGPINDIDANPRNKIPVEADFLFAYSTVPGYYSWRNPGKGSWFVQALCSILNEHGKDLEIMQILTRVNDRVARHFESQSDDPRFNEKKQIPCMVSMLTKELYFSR

[2] = biological target: T2, casp3_mouse Casp3 (UniProt P70677)
T2 sequence: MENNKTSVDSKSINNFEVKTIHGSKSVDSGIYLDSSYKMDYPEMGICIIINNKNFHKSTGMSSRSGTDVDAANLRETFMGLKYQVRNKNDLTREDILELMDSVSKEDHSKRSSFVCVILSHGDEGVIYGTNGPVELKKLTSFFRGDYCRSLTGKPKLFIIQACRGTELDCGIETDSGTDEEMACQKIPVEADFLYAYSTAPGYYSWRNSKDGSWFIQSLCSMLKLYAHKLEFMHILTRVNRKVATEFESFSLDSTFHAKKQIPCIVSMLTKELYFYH

[3] = biological target: T2, casp3_mouse Casp3; remark: listed apart in the source

effect of a mutation on the interaction [1]	effect of a mutation on the interaction [2]	effect of a mutation on the interaction [3]	Substance
decreasing interaction	increasing interaction	–	Small ribosomal subunit protein uS13 (Mus musculus) (from UniProt P62270) K88A
–	–	increasing interaction	Small ribosomal subunit protein uS13 (Mus musculus) (from UniProt P62270) Q87A
